Test results as given in patent US6218168A, “Process for preparing O-acetylserine, L-cysteine and L-cysteine-related products” (Consortium fur elektrochemische Inudstrie GmbH, priority 1995, dated 2001).

System: production strain JM15
Assay: Cysteine production in 1 L fermenter, JM15 with plasmid-encoded cysE alleles
Format: cell-based, E. coli
Settings: 48 h, JM15 transformed with plasmid
Procedure: Influence of different, plasmid-encoded cysE alleles on the production of L-cysteine or products derived from L-cysteine in a 1 L fermenter using the host strain JM15 20 mL of LB medium (1% tryptone, 0.5% yeast extract, 0.5% NaCl) contained in a 100 mL Erlenmeyer flask were inoculated with a single colony of the production strain JM15 (CGSC#5042) which had been transformed with the respective cysE plasmid.
After having been incubated for 7 hours in a bacterial shaker (30° C., 150 rpm), the respective preliminary cultures were transferred to 100 mL of SM1 medium. The SM1 medium contained 5 g/L glucose, 5 mg/L vitamin B1, 3 g/l KH2 PO4, 12 g/L K2 HPO4, 0.3 g/L MgSO4×7 H2 O, 0.1 g/L NaCl, 5 g/L (NH4)2 SO4, 14.7 mg/L CaCl2×2 H2 O, 2 mg/L FeSO4×2 H2 O, 1 g/L Na3 citrate×2 H2 O, 1 ml/L trace element solution and 25 mg/L tetracycline. The trace element solution was composed of 0.15 g/L Na2 MoO4×2 H2 O, 2.5 g/L H3 BO3, 0.7 g/L CoCl2×6 H2 O, 0.25 g/L CuSO4×5 H2 O, 1.6 g/L MnCl2×4 H2 O and 0.3 g/L ZnSO4×7 H2 O. The cultures were shaken in 1 L Erlenmeyer flasks at 30° C. and at 150 rpm for 17 h. After this incubation, the OD600 was between 4 and 5. The subsequent fermentation was carried out in Braun-Melsungen BIOSTAT M research fermenters. A culturing vessel having a total volume of 2 L was used.
The fermentation medium contained 15 g/L glucose, 5 g/L NaCl, 0.3 g/L MgSO4×7 H2 O, 15 mg/L CaCl2×2 H2 O, 75 mg/L FeSO4×7 H2 O, 1 g/L Na3 citrate×2 H2 O, 1.5 g/L KH2 PO4, 1 mL of trace element solution (see above), 5 mg/L vitamin B1, 2.5 g/L yeast extract (Difco), 2.5 g/L tryptone (Difco) and 25 mg/L tetracycline.
The glucose concentration in the fermenter was initially adjusted to a value of 15 g/L by pumping in a 700 g/L (w/v) (sterilized) glucose solution, and the pH was adjusted to 7.0 by pumping in a 25% NH4 OH solution. After an OD600 of 10 had been reached, 300 mg per hour were supplied from a sterile 100 g/L (w/v) stock solution of thiosulfate. 100 mL of preliminary culture were pumped into the fermenter vessel for the inoculation. The starting volume was approximately 1 L. The cultures were initially stirred at 400 rpm and aerated with 1.5 vvm of compressed air which had been sterilized by passing through a sterile filter. The fermentation was carried out at a temperature of 30° C.
The pH was maintained at a value of 7.0 by means of automatic correction with 25% NH4 OH. The oxygen saturation in the fermentation broth had at no time during the fermentation to fall below 20%; the stirring speed was used to ensure this. The glucose content of the nutrient solution, the optical density and the cysteine content were determined at two- to three-hourly intervals. The glucose content was determined enzymically using a glucose analyzer from YSI. The concentration of the glucose was adjusted to between 10 and 20 g/L by means of continuously feeding in this compound.
The content of cysteine in the medium was determined […] from the cell-free super-natant of the sample using the method of Gaitonde, M. K. (1967), Biochem. J. 104, 627-633.
The fermentation was terminated after 44-50 h.

B1: cysEXI: double mutant Thr167->Ala167, Gly245->Ser245 (protein, UniProt P0A9D4 1-273, looked up, variant T167A G245S)
Serine acetyltransferase: MSCEELEIVWNNIKAEARTLADCEPMLASFYHATLLKHENLGSALSYMLANKLSSPIMPAIAIREVVEEAYAADPEMIASAACDIQAVRTRDPAVDKYSTPLLYLKGFHALQAYRIGHWLWNQGRRALAIFLQNQVSVTFQVDIHPAAKIGRGIMLDHATGIVVGEAAVIENDVSILQSVTLGGTGKSGGDRHPKIREGVMIGAGAKILGNIEVGRGAKIGAGSVVLQPVPPHTTAAGVPARIVSKPDSDKPSMDMDQHFNGINHTFEYGDGI
  Cysteine yield: 3.4 g/L
